Values of other authors as cited in PMC5419078.
Like-named read-outs stand apart in the source and are kept apart here.

Key:
infliximab [1] = molecular target: infliximab
[2] = molecular target: etanercept ECD (Homo sapiens) (UniProt P20333)
[3] = molecular target: etanercept ECD (Homo sapiens) (UniProt P20333); assay: SPR
infliximab [4] = assay: SPR

Chain of TNF (P01375 77-233): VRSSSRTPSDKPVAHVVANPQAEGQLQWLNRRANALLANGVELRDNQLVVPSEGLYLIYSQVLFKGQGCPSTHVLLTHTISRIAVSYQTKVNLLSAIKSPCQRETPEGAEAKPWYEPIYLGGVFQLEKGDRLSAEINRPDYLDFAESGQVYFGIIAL
Chain of etanercept ECD (Homo sapiens) (P20333 23-257): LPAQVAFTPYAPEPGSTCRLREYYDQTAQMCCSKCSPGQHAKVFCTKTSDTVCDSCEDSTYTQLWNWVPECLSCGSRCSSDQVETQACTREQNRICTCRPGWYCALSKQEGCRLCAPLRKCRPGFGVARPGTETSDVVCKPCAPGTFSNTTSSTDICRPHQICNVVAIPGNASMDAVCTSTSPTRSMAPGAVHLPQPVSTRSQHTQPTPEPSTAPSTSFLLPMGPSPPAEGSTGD
Chain of infliximab (main, as listed by the source, chain 1 of 2, other chains not shown): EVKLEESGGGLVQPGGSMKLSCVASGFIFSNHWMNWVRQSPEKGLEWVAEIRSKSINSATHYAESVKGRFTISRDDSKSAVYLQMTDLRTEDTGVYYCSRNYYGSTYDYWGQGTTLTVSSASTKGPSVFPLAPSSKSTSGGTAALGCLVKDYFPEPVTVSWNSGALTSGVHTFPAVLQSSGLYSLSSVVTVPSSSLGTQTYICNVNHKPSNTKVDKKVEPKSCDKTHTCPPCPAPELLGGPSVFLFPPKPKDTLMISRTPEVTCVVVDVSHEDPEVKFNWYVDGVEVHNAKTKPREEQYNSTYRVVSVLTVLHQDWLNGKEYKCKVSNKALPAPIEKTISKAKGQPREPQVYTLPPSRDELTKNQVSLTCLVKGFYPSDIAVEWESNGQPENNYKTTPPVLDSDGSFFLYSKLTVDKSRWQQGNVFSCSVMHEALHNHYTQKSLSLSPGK

TNF (from UniProt P01375)
Kd (infliximab [1]): 0.0886 nM | Kd [2]: 0.00566 nM | Kd [3]: 0.0118 nM | Kd (infliximab [4]): 0.0273 nM
